In article PMC6731095, “Regulation of Eag1 gating by its intracellular domains” (eLife, 2019):

Legend:
Calmodulin = biological target: T1, Calmodulin (human, UniProt P0DP24 1-149); assay: cryo-EM structure; Eag1 Δ3–13 and CaM co-expressed and co-purified; 20 mM Tris pH 8, 300 mM KCl, 1 mM CaCl2, 0.05% digitonin; 5 mg/ml; C4 symmetry imposed; two conformations; conditions: both partners purified
T1 construct: Calmodulin, Homo sapiens, Uniprot P0DP24; Calcium (1 mM CaCl2) was present throughout; also called CaM; source: HEK293S GnTI-, infected with BacMam baculovirus together with Eag1 Δ3–13 baculovirus, co-purified with Eag1 Δ3–13

[1] = biological target: the molecule itself; assay: as above

binding result (Calmodulin): binds
B1: Eag1 Δ3–13 (rat Kv10.1/Eag1/Kcnh1, residues 3–13 deleted, C-terminal unstructured region 773-886 removed) (natural protein, UniProt Q63472 1-962, looked up)
chain: MTQNTFLENIVRRSNDTNFVLGNAQIVDWPIVYSNDGFCKLSGYHRAEVMQKSSACSFMYGELTDKDTVEKVRQTFENYEMNSFEILMYKKNRTPVWFFVKIAPIRNEQDKVVLFLCTFSDITAFKQPIEDDSCKGWGKFARLTRALTSSRGVLQQLAPSVQKGENVHKHSRLAEVLQLGSDILPQYKQEAPKTPPHIILHYCVFKTTWDWIILILTFYTAILVPYNVSFKTRQNNVAWLVVDSIVDVIFLVDIVLNFHTTFVGPAGEVISDPKLIRMNYLKTWFVIDLLSCLPYDVINAFENVDEGISSLFSSLKVVRLLRLGRVARKLDHYIEYGAAVLVLLVCVFGLAAHWMACIWYSIGDYEIFDEDTKTIRNNSWLYQLALDIGTPYQFNGSGSGKWEGGPSKNSVYISSLYFTMTSLTSVGFGNIAPSTDIEKIFAVAIMMIGSLLYATIFGNVTTIFQQMYANTNRYHEMLNSVRDFLKLYQVPKGLSERVMDYIVSTWSMSRGIDTEKVLQICPKDMRADICVHLNRKVFKEHPAFRLASDGCLRALAMEFQTVHCAPGDLIYHAGESVDSLCFVVSGSLEVIQDDEVVAILGKGDVFGDVFWKEATLAQSCANVRALTYCDLHVIKRDALQKVLEFYTAFSHSFSRNLILTYNLRKRIVFRKISDVKREEEERMKRKNEAPLILPPDHPVRRLFQRFRQQKEARLAAERGGRDLDDLDVEKGNALTDHTSANHSLVKASVVTVRESPATPVSFYPIPEQTLQATVLEVKHELKEDIKALNAKMTSIEKQLSEILRILMSRGSSQSPQDTCEVSRPQSPESDRDIFGAS
notes: Kv10.1/Eag1/Kcnh1, Rattus norvegicus, Uniprot Q63472; whole channel with residues 3-13 of the PAS loop deleted and the C-terminal unstructured region 773-886 removed; The GFP tag was removed with PreScission protease; also called calmodulin insensitive mutant; not shown: GFP, C-terminal, cleaved; His6, C-terminal, cleaved
stoichiometry N [1]: 4
